In patent US20250366499A1, “Flavin-Containing Monoamine Oxidase MAO6sh Capable of Degrading Biogenic Amines and Application Thereof” (Jiangnan University, priority 2024, published 2025):
“And” between values parts separate entries of the source, which are not always exact repeats. Equal values may be shown once.

Assays:
[1] = Application in table vinegar; assay type: biochemical; settings: enzyme 200 μg/ml, 25° C., 24-48 h
Experimental: The recombinant monoamine oxidase MAO6^sh prepared in Example 3 was subjected to ultrafiltration and concentration to adjust the protein concentration to 200 μg/ml, and then added to the commercially available table vinegar for standing at a room temperature (25° C.) for 24-48 h.

[2] = Degradation in commercially available Huangjiu, tryptamine; assay type: biochemical; settings: Huangjiu 18% vol, enzyme 200 μg/ml added 1:1, about 28° C., 48 h
Experimental: (§1) The content of biogenic amines was detected by high-performance liquid chromatography (HPLC).
(§2) The recombinant monoamine oxidase MAO6^sh prepared in Example 3 was subjected to ultrafiltration and concentration to adjust the protein concentration to 200 μg/ml, and then added to the Huangjiu in a ratio of 1:1 for reacting at a room temperature of about 28° C. for 48 h. The control group was commercially available Huangjiu (18% vol) without enzymes, and the total content of biogenic amines in the control group was 136.2 mg·L^−1.

[3] = Degradation in commercially available Huangjiu, phenylethylamine; assay type: biochemical; settings: Huangjiu 18% vol, enzyme 200 μg/ml added 1:1, about 28° C., 48 h
Experimental: as §1, §2

[4] = Enzyme activity measurement (peroxidase-coupled, A510), substrate cadaverine; assay type: biochemical
Experimental: (§3) Enzyme activity measurement: The activity of a biogenic amine oxidase was measured by an indirect measurement method of […]. The amine oxidase acts on biogenic amines to degrade the biogenic amines into corresponding aldehydes and hydrogen peroxide. Under the presence of peroxidase, hydrogen peroxide reacts with 4-aminoantipyrine and 2,4,6-tribromo-3-hydroxybenzoic acid to generate a quinone dye. The product has a maximum absorption value at 510 nm, and the magnitude of the activity of the amine oxidase was linearly related to the color intensity of the product within a certain range, so that the activity of the amine oxidase can be measured by measuring the change in A510.
(§4) The reaction was carried out in a 96-well plate. The reaction system included 20 μl of enzyme solution (80 ug·mL^−1) and 100 μl of prepared solution (including 200 mmol·L^−1 potassium phosphate buffer with a pH of 7.6, 1.5 mmol·L^−1 4-aminoantipyrine, and 1 mmol·L^−1 2,4,6-tribromo-3-hydroxybenzoic acid). To initiate the reaction, 20 μL of biogenic amine solution (10 mmol·L^−1) and 70 µL of peroxidase (1.4 mg·mL^−1) were added, the absorbance was measured at 510 nm, the reaction temperature was 37° C., and the reaction time was 10 min. The change in absorbance of 0.01 per minute was defined as one enzyme activity unit (U).
(§5) Definition of specific activity of monoamine oxidase (U/mg): The enzyme activity per milligram of protein.
(§6) The catalytic ability of the monoamine oxidase MAO6^sh before and after purification was measured respectively using a single biogenic amine as a substrate. Systems containing putrescine, tyramine, histamine, cadaverine, phenylethylamine, tryptamine, spermine or spermidine with a concentration of 10 mmol/L were prepared respectively, the pure enzyme in Example 3 was added to the reaction system after adjusting the protein concentration (80 ug/mL, 20 uL) for reacting for 30 min at 37° C., and the results were shown in
(§7) After the enzyme solution purified in Example 3 was respectively incubated for 30 min in water baths at 15° C., 30° C., 35° C., 40° C., 45° C., 50° C., 55° C. and 60° C., the enzyme activity was measured according to the standard enzyme reaction system to determine the stable temperature range thereof, and the results were shown in FIG. 6. […] When the incubation temperature was 50° C., the residual enzyme activity for putrescine was 36.66%, the residual enzyme activity for cadaverine was 30.55%, and the residual enzyme activity for tryptamine was 26.34%.
(§8) The reaction system was the same as that of Example 5, except that ethanol with different concentrations (0-20% vol) was added respectively. […] When the concentration of ethanol was about 15 vol %, the relative enzyme activities of the monoamine oxidase MAO6^sh for putrescine, tryptamine and cadaverine were 9.57%, 11.21% and 13.67% respectively (FIG. 9).

[5] = Enzyme activity measurement (peroxidase-coupled, A510), substrate putrescine; assay type: biochemical
Experimental: as §3, §4, §5, §6, §7
The reaction system was the same as that of Example 5, except that the pH of the reaction system was respectively adjusted to 3.0-9.0, the enzyme activity of the recombinant enzyme MAO6^sh under different pH reaction conditions was measured, the relative enzyme activity at each temperature was calculated respectively using a single biogenic amine as a substrate at the highest enzyme activity of 100%, and the results were shown in FIG. 7. When putrescine was used as a substrate, the optimal pH for the MAO6^sh was about 5.0-6.0. When the pH was within the range of 3.0-5.0, the enzyme activity […] rapidly with the increase of the pH. However, under alkaline conditions, the tolerance was stronger than the acid tolerance.
as §8

[6] = Degradation in commercially available Huangjiu, total biogenic amines; assay type: biochemical; settings: Huangjiu 18% vol (control 136.2 mg/L total), enzyme 200 μg/ml added 1:1, about 28° C., 48 h
Experimental: as §1, §2

[7] = Degradation in commercially available Huangjiu, spermine; assay type: biochemical; settings: Huangjiu 18% vol, enzyme 200 μg/ml added 1:1, about 28° C., 48 h
Experimental: as §1, §2

[8] = assay type: biochemical
Experimental: as §3
The reaction was carried out in a 96-well plate. […] To initiate the reaction, 20 μL of biogenic amine solution (10 mmol·L^−1) and 70 µL of peroxidase (1.4 mg·mL^−1) were added, the absorbance was measured at 510 nm, the reaction temperature was 37° C., and the reaction time was 10 min. The change in absorbance of 0.01 per minute was defined as one enzyme activity unit (U).
The catalytic ability of the monoamine oxidase MAO6^sh before and after purification was measured respectively using a single biogenic amine as a substrate. […]

[9] = Application in fermented sausage; assay type: biochemical; settings: enzyme 200 μg/ml added to raw material, versus sausage without enzyme
Experimental: 65-80% of lean meat and 20-35% of fat meat were taken by mass and cleaned, and bones, tendons, myolemma, lymph nodes, blood vessels, lesions and injury sites were removed. The fat meat and the lean meat were separated and cut into 4-5 cm meat pieces. The lean meat and about 5-8% of flake ice were placed in a chopper and chopped for 1-3 min. Based on the mass of pork, […] of sodium nitrite, 2-3% of table salt, 0.2-0.3% of compound phosphate, and 0.05-0.06% of sodium ascorbate were added. Spices, pepper, garlic, chili, and nutmeg were 0.2-0.3% of the raw meat. The recombinant monoamine oxidase MAO6^sh prepared in Example 3 was subjected to ultrafiltration and concentration to adjust the protein concentration to 200 μg/ml, and then added to the sausage raw material for chopping for 1-2 min, and then, the fat meat and about 5-8% of flake ice were added for chopping for 4-6 min. The sausage was pickled and then poured into the sausage casing. The sausage poured into the sausage casing was pickled at 4° C. for 12 h, then heated to 30° C., fermented until the pH decreased to about 5.1, and matured at 14-16° C. for 1-10 d.

[10] = Enzyme activity measurement (peroxidase-coupled, A510), substrate tryptamine; assay type: biochemical
Experimental: as §3, §4, §5, §6, §7, §8

[11] = Degradation in commercially available Huangjiu, histamine; assay type: biochemical; settings: Huangjiu 18% vol, enzyme 200 μg/ml added 1:1, about 28° C., 48 h
Experimental: as §1, §2

[12] = Application in commercially available low-salt soy sauce; assay type: biochemical; settings: enzyme 200 ug/ml, 25° C., 24-48 h
Experimental: The recombinant monoamine oxidase MAO6^sh prepared in Example 3 was subjected to ultrafiltration and concentration to adjust the protein concentration to 200 ug/ml, and then added to the commercially available low-salt soy sauce for standing at a room temperature (25° C.) for 24-48 h.

[13] = Degradation in commercially available Huangjiu, putrescine; assay type: biochemical; settings: Huangjiu 18% vol, enzyme 200 μg/ml added 1:1, about 28° C., 48 h
Experimental: as §1, §2

[14] = Degradation in commercially available Huangjiu, spermidine; assay type: biochemical; settings: Huangjiu 18% vol, enzyme 200 μg/ml added 1:1, about 28° C., 48 h
Experimental: as §1, §2

[15] = Degradation in commercially available Huangjiu, cadaverine; assay type: biochemical; settings: Huangjiu 18% vol, enzyme 200 μg/ml added 1:1, about 28° C., 48 h
Experimental: as §1, §2

[16] = Degradation in commercially available Huangjiu, tyramine; assay type: biochemical; settings: Huangjiu 18% vol, enzyme 200 μg/ml added 1:1, about 28° C., 48 h
Experimental: as §1, §2

[17] = crude enzyme solution, induction at 16° C.
[18] = pure enzyme 80 ug/mL, 10 mmol/L substrate, 37° C., 30 min

B1: MAO6^sh: recombinant flavin-containing monoamine oxidase from Saccharopolyspora hirsuta, amino acid sequence SEQ ID NO. 1, expressed in E. coli BL21/pET28a-MAO6^sh (protein, listed as Saccharopolyspora hirsuta)
chain: MDSYDVVVIGAGFAGLVAARELALRGHAVVVLEARDRIGGRTWTDERLGRRLEMGGTWVHWLQPHVWSEITRYDQRIEPSPSSQAVHWVAGGSAHRGSPEEFDALISPGMDQLARDSRAWFPLPYEPLHRADLDQVDHLSVADYFAGLDLNPVEREVTEGVWAEHFNGPAAVSGYTQAMRWCAAASGNWQLLHQATSGYRLTGGTAALAGAIAADGGAELHLGSVVASVSQDSGGATVSTTDGTSVRARRVICTLPLNVLGTVDFQPALPATKLAASAERTASQGLKTWIRVRGEVAPFTAYAPDSHDLTFVRPEYTVEGDTLLVAFGTRAADLAPDDVDGVARALRVWRDDLEVLEVSGHDWMTDDFSRETWPMQRPEQLTRYLAALQEPHGVVRFAGSDLATGWAGFIDGAVESGLRASRAVQDALRGPRG
In the case of B1, the “reduction of content of biogenic amines” value [1] is reported as “effectively reduce the content of biogenic amines”, the “Degradation rate, Tryptamine” value [2] is reported as 54.07% and 54.06% and the “Degradation rate, Tryptamine” value ([2]; listed as recombinant enzyme) is reported as 54.07%. The “Degradation rate, Phenylethylamine” value [3] was 5.78%, the “residual enzyme activity for cadaverine” value ([4]; 30 min incubation at 50° C.) was 30.55% and the “specific enzyme activity for cadaverine” value [4, 17] was 14.70 U/mg. The “relative enzyme activity for cadaverine” value ([4]; ethanol about 15 vol %) was 13.67%, the “relative enzyme activity for cadaverine” value ([4]; ethanol lower than 10% vol) was 35.78% and the “specific enzyme activity for cadaverine” value [4, 18] was 146.05 U/mg. For the same molecule, the “residual enzyme activity for putrescine” value ([5]; 30 min incubation at 50° C.) was 36.66%, the “specific enzyme activity for putrescine” value [5, 17] was 15.66 U/mg and the “relative enzyme activity for putrescine” value ([5]; ethanol about 15 vol %) was 9.57%. The “relative enzyme activity for putrescine” value ([5]; ethanol lower than 10% vol) was 29.44%, the “specific enzyme activity for putrescine” value [5, 18] was 161.59 U/mg and the “optimal pH” value ([5]; putrescine as substrate, reaction pH 3.0-9.0) was 5.0-6.0. The “degradation rate for total biogenic amines” value [6] was 25.56%, the “Degradation rate, Spermine” value [7] was 7.75% and the residual enzyme activity ([8]; 30 min incubation, incubation temperature exceeds 45° C.) was “about 30%”. For the same molecule, the optimal temperature ([8]; most suitable substrate, reaction temperatures 25-60° C.) was 45-50 °C, the “reduction of content of biogenic amines” value [9] was “effectively reduce the content of biogenic amines” and the “residual enzyme activity for tryptamine” value ([10]; 30 min incubation at 50° C.) was 26.34%. For the same molecule, the “specific enzyme activity for tryptamine” value [10, 17] was 13.94 U/mg, the “relative enzyme activity for tryptamine” value ([10]; ethanol about 15 vol %) was 11.21% and the “relative enzyme activity for tryptamine” value ([10]; ethanol lower than 10% vol) was 30.27%. The “specific enzyme activity for tryptamine” value [10, 18] was 149.16 U/mg, the “Degradation rate, Histamine” value [11] was 21.44% and the “reduction of content of biogenic amines” value [12] was “effectively reduce the content of biogenic amines”. The “Degradation rate, Putrescine” value [13] was 33.76%, the “Degradation rate, Spermidine” value [14] was 8.51% and the “Degradation rate, Cadaverine” value [15] was 43.78%. For the same molecule, the “Degradation rate, Tyramine” value [16] was 19.31%.
